The values that follow come from patent US20160222130A1 (Astellas, published 2016).

Read-outs that look alike come from different tables or passages of the source.

Assay [1] has as its target T1, human Tie2 (on human Tie2-expressing cells) (human, UniProt Q02763 23-1124). As to the kind of experiment: cell-based or functional assay.
Assay [2] addresses T1, human Tie2 (on human Tie2-expressing …). As to the kind of experiment: cell-based or functional assay. The source holds these as a separate data set.
For assay [3] the target is unchanged. As to the kind of experiment: cell-based or functional assay. The source holds these as a separate data set.
Assay [4] shares this target. As to the kind of experiment: cell-based or functional assay. This is another data set of the same source.
The target in assay [5] is T2, recombinant human Tie2-Fc chimeric protein (R&D, 313-TI-100) (human, UniProt Q02763 23-745).
T2 construct: Bought reagent; Fc part of the bought chimera not given
Kind of assay: ELISA, Tie2-Fc coated, HRP/TMB absorbance at 450 nm. A general note: ELISA stands for enzyme-linked immunosorbent assay.

In assay [6] the target is T3, recombinant monkey Tie2-Fc chimeric protein (Sino Biological Inc., 90292-C02H) (monkey).
T3 construct: Bought reagent
Described as above.

T1 sequence (Q02763 23-1124): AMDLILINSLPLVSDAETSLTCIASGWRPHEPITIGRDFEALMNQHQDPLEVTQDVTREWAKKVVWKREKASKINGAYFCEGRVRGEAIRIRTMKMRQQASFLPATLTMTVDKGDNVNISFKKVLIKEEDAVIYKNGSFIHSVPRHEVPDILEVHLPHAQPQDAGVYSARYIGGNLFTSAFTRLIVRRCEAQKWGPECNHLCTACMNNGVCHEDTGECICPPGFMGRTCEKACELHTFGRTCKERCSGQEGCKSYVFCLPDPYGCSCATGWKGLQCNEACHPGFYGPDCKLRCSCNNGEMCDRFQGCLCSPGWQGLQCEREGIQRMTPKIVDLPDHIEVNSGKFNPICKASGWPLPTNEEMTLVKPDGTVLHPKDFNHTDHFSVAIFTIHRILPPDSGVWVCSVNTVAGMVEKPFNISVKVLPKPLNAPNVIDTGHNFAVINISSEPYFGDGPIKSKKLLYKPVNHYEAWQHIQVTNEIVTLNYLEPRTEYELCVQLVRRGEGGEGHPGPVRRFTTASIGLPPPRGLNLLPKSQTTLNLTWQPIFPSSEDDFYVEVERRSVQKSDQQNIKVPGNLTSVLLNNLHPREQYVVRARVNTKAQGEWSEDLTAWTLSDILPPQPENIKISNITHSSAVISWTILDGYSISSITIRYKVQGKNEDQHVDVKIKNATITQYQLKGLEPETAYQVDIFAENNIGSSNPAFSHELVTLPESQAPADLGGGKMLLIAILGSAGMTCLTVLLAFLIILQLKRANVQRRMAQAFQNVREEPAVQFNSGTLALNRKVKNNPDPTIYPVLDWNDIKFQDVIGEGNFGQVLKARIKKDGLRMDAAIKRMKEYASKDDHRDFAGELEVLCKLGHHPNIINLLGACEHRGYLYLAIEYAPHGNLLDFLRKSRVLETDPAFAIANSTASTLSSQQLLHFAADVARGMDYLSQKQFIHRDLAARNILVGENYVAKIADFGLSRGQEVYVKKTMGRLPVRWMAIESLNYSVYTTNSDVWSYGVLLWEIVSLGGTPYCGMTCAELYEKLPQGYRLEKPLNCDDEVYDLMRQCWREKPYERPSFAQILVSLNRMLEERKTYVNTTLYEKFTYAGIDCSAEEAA
T2 sequence (Q02763 23-745, change not shown): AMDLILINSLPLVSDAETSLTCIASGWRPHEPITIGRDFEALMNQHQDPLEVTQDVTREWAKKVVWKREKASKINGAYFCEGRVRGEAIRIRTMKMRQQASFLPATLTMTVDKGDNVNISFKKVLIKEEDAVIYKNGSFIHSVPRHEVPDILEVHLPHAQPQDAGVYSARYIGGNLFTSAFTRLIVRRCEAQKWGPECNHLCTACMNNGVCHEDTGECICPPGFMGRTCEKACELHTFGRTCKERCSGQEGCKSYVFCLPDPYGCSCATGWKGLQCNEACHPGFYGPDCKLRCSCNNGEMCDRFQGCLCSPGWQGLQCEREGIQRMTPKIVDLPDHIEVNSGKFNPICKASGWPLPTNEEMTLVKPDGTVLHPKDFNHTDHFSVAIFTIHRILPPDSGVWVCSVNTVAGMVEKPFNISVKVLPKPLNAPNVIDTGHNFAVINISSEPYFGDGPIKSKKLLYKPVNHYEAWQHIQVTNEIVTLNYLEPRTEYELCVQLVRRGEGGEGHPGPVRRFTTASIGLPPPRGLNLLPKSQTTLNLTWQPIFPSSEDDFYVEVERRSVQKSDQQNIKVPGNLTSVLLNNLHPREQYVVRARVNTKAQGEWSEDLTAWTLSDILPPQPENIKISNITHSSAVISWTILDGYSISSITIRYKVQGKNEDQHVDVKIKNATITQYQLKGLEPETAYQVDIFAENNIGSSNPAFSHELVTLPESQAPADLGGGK

B1: fully human 2-16A2 (antibody, human IgG1, kappa, V domains shown)
VH: EVQLVESGGGLVQPGGSLRLSCAASGFTFDDYAMHWVRQAPGKGLEWVAGISWNSGSIVYADSVKGRFTISRDNSKNTLYLQMNSLRAEDTAVYYCAKDIREQLVEDAFDIWGQGTLVTVSS
VL: DIQMTQSPSSLSASVGDRVTITCRSSQSLLHSHRYNYLDWYQQKPGKAPKLLIYLGSNRASGVPSRFSGSGSGTDFTLTISSVQPEDFATYYCMQTLQTPLTFGQGTKVEIKR
Take B1: the “EC50 value of anti-apoptotic activity, human Tie2-expressing BaF3 cell” value (“EC50 value of anti-apoptotic activity” for short) in assay [1] worked out at 0.0376 µg/mL.

B2: TIE-1-Igγ1-WT (antibody, human IgG1, kappa)
heavy: not shown
light: DIQMTQSPSSLSASVGDRVTITCRSSQSLLHSHRYNYLDWYQQKPGKAPKLLIYLGSNRASGVPSRFSGSGSGTDFTLTISSVQPEDFATYYCMQTLQTPLTFGQGTKVEIKRTVAAPSVFIFPPSDEQLKSGTASVVCLLNNFYPREAKVQWKVDNALQSGNSQESVTEQDSKDSTYSLSSTLTLSKADYEKHKVYACEVTHQGLSSPVTKSFNRGEC
As for B2, the “EC50 value of anti-apoptotic activity” value in assay [1] is 0.0071 µg/mL.

B3: TIE-1-Igγ1-I253A (antibody, human IgG1, kappa, L234A L235A)
heavy: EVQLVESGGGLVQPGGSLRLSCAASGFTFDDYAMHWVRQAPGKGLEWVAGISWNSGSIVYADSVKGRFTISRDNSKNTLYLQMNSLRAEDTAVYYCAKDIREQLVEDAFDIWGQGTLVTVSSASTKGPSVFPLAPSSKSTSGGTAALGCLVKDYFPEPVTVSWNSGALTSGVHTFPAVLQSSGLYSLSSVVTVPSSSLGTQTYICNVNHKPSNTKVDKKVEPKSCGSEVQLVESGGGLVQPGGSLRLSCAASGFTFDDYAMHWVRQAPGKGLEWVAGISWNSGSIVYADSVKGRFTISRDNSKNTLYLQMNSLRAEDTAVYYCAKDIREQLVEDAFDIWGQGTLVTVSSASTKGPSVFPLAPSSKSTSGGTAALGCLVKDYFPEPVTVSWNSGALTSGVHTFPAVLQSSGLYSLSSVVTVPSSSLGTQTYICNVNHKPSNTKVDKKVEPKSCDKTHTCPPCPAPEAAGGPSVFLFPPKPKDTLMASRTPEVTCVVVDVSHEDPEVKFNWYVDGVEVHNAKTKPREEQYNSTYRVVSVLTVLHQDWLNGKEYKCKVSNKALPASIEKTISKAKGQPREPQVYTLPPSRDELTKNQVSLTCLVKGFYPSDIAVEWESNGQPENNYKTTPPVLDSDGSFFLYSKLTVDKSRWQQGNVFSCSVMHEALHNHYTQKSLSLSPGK
light: DIQMTQSPSSLSASVGDRVTITCRSSQSLLHSHRYNYLDWYQQKPGKAPKLLIYLGSNRASGVPSRFSGSGSGTDFTLTISSVQPEDFATYYCMQTLQTPLTFGQGTKVEIKRTVAAPSVFIFPPSDEQLKSGTASVVCLLNNFYPREAKVQWKVDNALQSGNSQESVTEQDSKDSTYSLSSTLTLSKADYEKHKVYACEVTHQGLSSPVTKSFNRGEC
With B3, the “EC50 value of anti-apoptotic activity” value in assay [2] is 0.00506 µg/mL.

B4: murine monoclonal antibody 15B8 (antibody, V domains shown)
VH: QVQLQQPGVVLVMPGASVKLSCKASGYTFASYWMHWVKQRPGQGLEWIGEIDPSDSYRNYNQKFKGKATLTVDKSSSTVNMQLSSLTSEDSAVYYCAKTSGIGRAMDYWGQGTSVTVSS
VL: DIQMIQSPASLSASVGETVTITCRASENIYSFVTWYQQKQGKSPQLLVFNAKNLVEGVPSSFSGSGSGTQFSLKIDSLQPEDFGTYYCQHHYSIPYTFGGGTKLEMR
On to B4, for which the “anti-apoptotic activity, human Tie2-expressing BaF3 cell (maximum, relative to Ang-1)” value in assay [3] was approximately 60%. Also, the “EC50 value of anti-apoptotic activity” value in assay [4] was 0.0266 µg/mL. Moreover, the half-maximal effective concentration (EC50) (usually the concentration at which the effect is half-maximal) was found to be 0.219 µg/mL in assay [5] and 0.224 µg/mL in assay [6].
